# Laboratory results from publication PMC9245472.
# Biological target: T1, ArgR (Thermotoga neapolitana) (UniProt Q9KWZ0)
# T1 sequence: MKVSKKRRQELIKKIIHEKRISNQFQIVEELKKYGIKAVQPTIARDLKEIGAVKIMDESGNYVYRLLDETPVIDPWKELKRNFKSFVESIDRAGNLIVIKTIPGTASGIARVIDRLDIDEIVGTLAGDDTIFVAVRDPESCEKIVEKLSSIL
# Experiment: EMSA
# Details: 10 mM Tris-HCl pH 7.5, 250 mM KCl, 5 mM MgCl2, 2.5 mM CaCl2, 2.5% glycerol, 0.5 mM DTT, 100-fold sonicated herring sperm DNA, 37 C 30 min; 2% agarose in TAE …
sequence,measurement,value
TGTTACTCTTGAGTTACCAAAACAAAAACAAATGAATTTTTCTTCCAGAGGTGTTATATTTATGCTGTATAATTGTATGTGTTTTCAATCTGAAAGATGGAGGTGTTCAACTTGAAGGTGTCGAAAAAAAGAAGACAGGAACTCATAA (double strand) [argRo (ArgRTn)],binding,binds
